The text below walks through data of IntAct's records for PubMed 16339905.

B1: Nephrocystin-4 (Homo sapiens), O75161-1 (parent)
chain: MNDWHRIFTQNVLVPPHPQRARQPWKESTAFQCVLKWLDGPVIRQGVLEVLSEVECHLRVSFFDVTYRHFFGRTWKTTVKPTKRPPSRIVFNEPLYFHTSLNHPHIVAVVEVVAEGKKRDGSLQTLSCGFGILRIFSNQPDSPISASQDKRLRLYHGTPRALLHPLLQDPAEQNRHMTLIENCSLQYTLKPHPALEPAFHLLPENLLVSGLQQIPGLLPAHGESGDALRKPRLQKPITGHLDDLFFTLYPSLEKFEEELLELHVQDHFQEGCGPLDGGALEILERRLRVGVHNGLGFVQRPQVVVLVPEMDVALTRSASFSRKVVSSSKTSSGSQALVLRSRLRLPEMVGHPAFAVIFQLEYVFSSPAGVDGNAASVTSLSNLACMHMVRWAVWNPLLEADSGRVTLPLQGGIQPNPSHCLVYKVPSASMSSEEVKQVESGTLRFQFSLGSEEHLDAPTEPVSGPKVERRPSRKPPTSPSSPPAPVPRVLAAPQNSPVGPGLSISQLAASPRSPTQHCLARPTSQLPHGSQASPAQAQEFPLEAGISHLEADLSQTSLVLETSIAEQLQELPFTPLHAPIVVGTQTRSSAGQPSRASMVLLQSSGFPEILDANKQPAEAVSATEPVTFNPQKEESDCLQSNEMVLQFLAFSRVAQDCRGTSWPKTVYFTFQFYRFPPATTPRLQLVQLDEAGQPSSGALTHILVPVSRDGTFDAGSPGFQLRYMVGPGFLKPGERRCFARYLAVQTLQIDVWDGDSLLLIGSAAVQMKHLLRQGRPAVQASHELEVVATEYEQDNMVVSGDMLGFGRVKPIGVHSVVKGRLHLTLANVGHPCEQKVRGCSTLPPSRSRVISNDGASRFSGGSLLTTGSSRRKHVVQAQKLADVDSELAAMLLTHARQGKGPQDVSRESDATRRRKLERMRSVRLQEAGGDLGRRGTSVLAQQSVRTQHLRDLQVIAAYRERTKAESIASLLSLAITTEHTLHATLGVAEFFEFVLKNPHNTQHTVTVEIDNPELSVIVDSQEWRDFKGAAGLHTPVEEDMFHLRGSLAPQLYLRPHETAHVPFKFQSFSAGQLAMVQASPGLSNEKGMDAVSPWKSSAVPTKHAKVLFRASGGKPIAVLCLTVELQPHVVDQVFRFYHPELSFLKKAIRLPPWHTFPGAPVGMLGEDPPVHVRCSDPNVICETQNVGPGEPRDIFLKVASGPSPEIKDFFVIIYSDRWLATPTQTWQVYLHSLQRVDVSCVAGQLTRLSLVLRGTQTVRKVRAFTSHPQELKTDPKGVFVLPPRGVQDLHVGVRPLRAGSRFVHLNLVDVDCHQLVASWLVCLCCRQPLISKAFEIMLAAGEGKGVNKRITYTNPYPSRRTFHLHSDHPELLRFREDSFQVGGGETYTIGLQFAPSQRVGEEEILIYINDHEDKNEEAFCVKVIYQ
partner: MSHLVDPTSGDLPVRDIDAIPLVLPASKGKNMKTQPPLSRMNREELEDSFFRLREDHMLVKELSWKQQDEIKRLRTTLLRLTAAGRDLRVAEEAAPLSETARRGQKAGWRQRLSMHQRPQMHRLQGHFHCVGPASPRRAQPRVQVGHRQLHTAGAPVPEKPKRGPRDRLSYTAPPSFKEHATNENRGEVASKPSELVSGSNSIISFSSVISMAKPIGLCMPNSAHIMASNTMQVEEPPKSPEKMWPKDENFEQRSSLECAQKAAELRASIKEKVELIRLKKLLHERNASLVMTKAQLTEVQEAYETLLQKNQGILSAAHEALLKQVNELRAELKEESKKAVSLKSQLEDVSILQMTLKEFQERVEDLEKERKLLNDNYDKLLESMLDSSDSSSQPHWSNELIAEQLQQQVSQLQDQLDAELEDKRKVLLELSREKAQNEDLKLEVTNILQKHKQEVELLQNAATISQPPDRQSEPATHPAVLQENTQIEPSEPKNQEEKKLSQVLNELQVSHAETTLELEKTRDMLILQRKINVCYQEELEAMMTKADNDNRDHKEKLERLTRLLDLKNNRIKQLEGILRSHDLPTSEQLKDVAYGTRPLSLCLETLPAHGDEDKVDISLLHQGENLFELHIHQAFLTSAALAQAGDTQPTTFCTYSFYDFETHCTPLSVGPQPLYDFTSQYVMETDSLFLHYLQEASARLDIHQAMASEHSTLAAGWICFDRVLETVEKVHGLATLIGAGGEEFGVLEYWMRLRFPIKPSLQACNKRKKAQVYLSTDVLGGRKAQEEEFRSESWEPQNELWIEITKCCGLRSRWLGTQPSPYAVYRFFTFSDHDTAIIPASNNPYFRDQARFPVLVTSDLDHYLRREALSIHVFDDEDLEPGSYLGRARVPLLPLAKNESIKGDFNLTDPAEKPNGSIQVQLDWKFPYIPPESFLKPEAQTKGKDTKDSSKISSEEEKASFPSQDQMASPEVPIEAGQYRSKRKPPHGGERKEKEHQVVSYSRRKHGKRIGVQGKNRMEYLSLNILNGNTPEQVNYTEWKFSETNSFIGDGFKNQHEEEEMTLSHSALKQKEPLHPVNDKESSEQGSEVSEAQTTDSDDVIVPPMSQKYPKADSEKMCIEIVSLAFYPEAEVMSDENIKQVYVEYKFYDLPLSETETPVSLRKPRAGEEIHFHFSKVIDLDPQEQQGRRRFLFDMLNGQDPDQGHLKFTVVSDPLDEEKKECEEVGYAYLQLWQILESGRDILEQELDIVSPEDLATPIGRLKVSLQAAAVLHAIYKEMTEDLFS
B2: X-linked retinitis pigmentosa GTPase regulator-interacting protein 1 (Homo sapiens), Q96KN7-1 (parent)
chain: B1 partner
partner: B1 chain

In one assay the parent is B1. Conditions: with RPGRIP1, Q96KN7-1.
Turning to G754R, the “effect of a mutation on the interaction” value is given as “disrupting interaction”.

A further assay covers variants of B2. Conditions: with NPHP4, O75161-1.
In the case of D876G, the “effect of a mutation on the interaction” value is “disrupting interaction”. For the variant G746E, the “effect of a mutation on the interaction” value was “disrupting interaction”. With R852Q, the “effect of a mutation on the interaction” value is listed as “with no effect”.

The variants in a further assay derive from B2. As to conditions: with NPHP4, O75161-1. This is another data set of the same source.
Turning to D876G, the “effect of a mutation on the interaction” value is “decreasing interaction”.
